Earlier results on 1 substance are cited in publication PMC9686918.

This data set addresses myeloperoxidase (Homo sapiens) (UniProt P05164).

myeloperoxidase (Homo sapiens), sequence (P05164 165-273): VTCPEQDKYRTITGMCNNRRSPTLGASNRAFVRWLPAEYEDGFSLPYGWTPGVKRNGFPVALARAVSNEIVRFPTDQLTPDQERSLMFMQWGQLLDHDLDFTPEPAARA

Take “human serum albumin (from UniProt P02768)”: the Kd is 20 µM.
